Where two headings read alike, the source gives them in different places.
How the values were obtained:
[1] = target: T1, CD74 (Mus musculus, UniProt P04441); assay: Coimmunoprecipitation of FITC-labeled constructs with CD74; type: binding; conditions: FITC-labeled construct, bead-immunopurified CD74
T1 construct: DR*1501-Tg splenocytes were biotinylated and lysed as described above and CD74 was immunoprecipitated overnight; endogenous in cells; host or cells: splenocytes of DR*1501-Tg mice (surface-biotinylated, lysed in 1% CHAPS/TEN; CD74 captured on Protein L / ln-1 beads)
T1 sequence (P04441 1-215 isoform P04441-2): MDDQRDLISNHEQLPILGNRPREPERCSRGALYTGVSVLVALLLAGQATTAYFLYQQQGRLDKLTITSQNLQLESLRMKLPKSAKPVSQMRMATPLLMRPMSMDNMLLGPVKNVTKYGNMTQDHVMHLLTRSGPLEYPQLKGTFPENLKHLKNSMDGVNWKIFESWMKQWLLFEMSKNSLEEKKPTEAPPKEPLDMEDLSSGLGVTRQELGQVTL
Description: For immunoprecipitation experiments, antibody TU39 (BD Pharmingen) was pre-bound to bead-conjugated Protein A for 2 hours in ice-cold TEN-TX100 or TEN-CHAPS followed by RTL binding to these complexes. Lysate (previously pre-cleared with bead-conjugated Protein A) was added to the tube and binding was carried out overnight at 4° C. with soft orbital shaking Samples were extensively washed with TEN buffer and the appropriate detergent. For CD74 immunoprecipitation, ln-1 mAb was adsorbed to bead-conjugated Protein L as described above and pre-cleared lysate was added to this mixture. When necessary, bound material was eluted by boiling the immune complexes in electrophoresis sample buffer and analyzed by SDS-PAGE and Western blot.
For direct binding of RTL constructs, Protein-L/ln-1/CD74 complexes were prepared as described above. Labeled ligand constructs were incubated for 4 hours at 4° C. in 1% CHAPS in TEN buffer and free ligand was removed by extensive washing. Elution of bound proteins was carried out as described above and the eluate was analyzed by SDS-P AGE. […] In all assays involving fluorescent labeling, the chromophore was detected by scanning at the appropriate wavelength using a Molecular Imager® FX scanner (Bio-Rad) and the fluorescence intensity was determined using Quantity One® software (Bio-Rad) associated with the imager.

[2] = tested on: mMOG-35-55-induced EAE in DR*1501-Tg mice; conditions: for effect on EAE (in words): mMOG-35-55-induced EAE
[3] = target: T1, CD74; assay: Direct binding of FITC-labeled constructs to immuno-adsorbed CD74; conditions: FITC-labeled ligand, immuno-adsorbed CD74, 4 hours at 4° C., 1% CHAPS; read-out: CD74 One binding site KD
Description: (§1) In order to test ligand binding to the separate components of the RTL receptor, DR*1501-Tg splenocytes were biotinylated and lysed as described above and CD74 was immunoprecipitated overnight at 4° C. with the anti-CD74 monoclonal antibody ln-1. Immune complexes (Protein L-beads/ln-1/CD74) were analyzed for their ability to bind FITC-labeled pDR2RTL constructs by performing a direct binding saturation with increasing concentration of the different constructs (0 to 10 nM). Binding was carried out for 4 hours at 4° C. with gentle shaking and in the presence of 1% CHAPS in TEN buffer. Afterwards the complexes were washed thoroughly with 1% CHAPS/TEN and once with only TEN buffer to remove excess detergent. Bound proteins were eluted in 2% SDS electrophoresis sample buffer at 90° C. for 6 to 8 minutes and beads were sedimented. After the supernatant was collected and proteins separated using 10-20% SDS-PAGE, the gel was scanned for FITC chromophore and quantified by densitometry. Ligand concentration was plotted versus the fluorescence intensity of the bands and the curve generated was fit to one or two binding sites with the GraphPad Prism® Software. […] Direct binding to saturating concentrations of the pDR2 constructs was carried out and analyzed as described above.

[4] = tested on: MBP-85-99-induced EAE in MBP-TCR/DR2-Tg mice
Description: HLA-DR2 positive male and female mice between 8 and 12 weeks of age were immunized subcutaneously at four sites on the flanks with 0.2 ml of an emulsion of 200 μg immunogenic peptide and complete Freund's adjuvant containing 400 μg of heat-killed Mycobacterium tuberculosis H37RA (Difco, Detroit, Mich.) (Vandenbark et al, J Immunol 171:127-133, 2003; Buenafe et al, Immunology 130:114-124, 2010). In addition, mice were given pertussis toxin (Ptx) from List Biological Laboratories (Campbell, Calif.) on days 0 and 2 post-immunization (75 ng and 200 ng per mouse, respectively). Immunized mice were assessed daily for clinical signs of EAE on a 6 point scale of combined hind limb and forelimb paralysis scores. For hind limb scores: 0=normal; 0.5=limp tail or mild hind limb weakness (e.g., a mouse cannot resist inversion after a 90° turn of the base of the tail); 1=limp tail and mild hind limb weakness; 2=limp tail and moderate hind limb weakness (e.g., an inability of the mouse to rapidly right itself after inversion); 3=limp tail and moderately severe hind limb weakness (e.g., inability of the mouse to right itself after inversion and clear tilting of hind quarters to either side while walking); 4=limp tail and severe hind limb weakness (hind feet can move but drag more frequently than face forward); 5=limp tail and paraplegia (no movement of hind limbs). Front limb paralysis scores are either 0.5 for clear restriction in normal movement or 1 for complete forelimb paralysis. The combined score is the sum of the hind limb score and the forelimb score.
(§2) Rarely, there was mortality of HLA-DR2 mice with severe EAE and in these cases, mice were scored as a 6 for the remainder of the experiment. Mean EAE scores and standard deviations for mice grouped according to initiation of RTL or vehicle treatment were calculated for each day and summed for the entire experiment (Cumulative Disease Index, CDI, represents total disease load). Daily mean scores were analyzed by a two-tailed Mann Whitney U test for nonparametric comparisons between vehicle and pDR2 treatment groups. Mean CDIs were analyzed by a one way ANOVA with Tukey post-test, and a nonparametric one way Kruskal-Wallis ANOVA with Dunn's multiple comparisons post-test to confirm significance between all groups.
(§3) pDR2 constructs (Table 3) were injected subcutaneously daily for 5 days at the indicated doses to treat EAE induced in HLA-DR2-Tg and MBP-TCR/DR2-Tg mice and clinical signs were scored as described above. […] Fab1B11 alone in vehicle was run as a negative control.

[5] = tested on: CD80; assay: CD80 expression on CD11b+ monocytes from spinal cord of treated EAE mice; type: in vivo, mouse; conditions: day 15 post-immunization
Description: EAE was induced in mice by immunization with mMOG-35-55. At disease onset, the mice were treated with one of the following constructs: (i) pDR2 with covalently bound mMOG-35-55 (100 μg), (ii) pDR2 without peptide (1000 μg), (iii) DR-α1 (750 μg), or (iv) vehicle alone. The constructs were administered subcutaneously for two sequential days. On day 15 post-immunization, mice were sacrificed and spinal cords were harvested and pooled for each group. Isolated cells were stained for CD74, CD11b, CD80, ICAM, and HLA-DR expression and analyzed by FACS.

[6] = target: MHC class II from DR*1501-Tg mice; assay: Direct binding of FITC-labeled constructs to MHC class II immuno-adsorbed from CD74-depleted lysate; design: species or system mouse; conditions: FITC-labeled ligand, read-out: MHC Class II One binding site KD
Description: as §1

[7] = tested on: hMOG-35-55-induced EAE in DR*1502-Tg mice; conditions: treated at disease onset
Description: In addition, mice were given pertussis toxin (Ptx) from List Biological Laboratories (Campbell, Calif.) on days 0 and 2 post-immunization (75 ng and 200 ng per mouse, respectively). Immunized mice were assessed daily for clinical signs of EAE on a 6 point scale of combined hind limb and forelimb paralysis scores. For hind limb scores: 0=normal; 0.5=limp tail or mild hind limb weakness (e.g., a mouse cannot resist inversion after a 90° turn of the base of the tail); 1=limp tail and mild hind limb weakness; 2=limp tail and moderate hind limb weakness (e.g., an inability of the mouse to rapidly right itself after inversion); 3=limp tail and moderately severe hind limb weakness (e.g., inability of the mouse to right itself after inversion and clear tilting of hind quarters to either side while walking); 4=limp tail and severe hind limb weakness (hind feet can move but drag more frequently than face forward); 5=limp tail and paraplegia (no movement of hind limbs). Front limb paralysis scores are either 0.5 for clear restriction in normal movement or 1 for complete forelimb paralysis. The combined score is the sum of the hind limb score and the forelimb score.
as §2, §3

[8] = DR*1501-Tg mice, mMOG-35-55/CFA/Ptx EAE, treated at disease onset
[9] = MBP-TCR/DR2-Tg mice, treated for five days following onset

B1: RTL302-5D: Human HLA DR2 (DRB1*1501/DRA*0101) β1α1 domains (V102D, I104D, A106D, F108D, L110D), no peptide (protein)
chain: MGDTRPRFLWQPKRECHFFNGTERVRFLDRYFYNQEESVRFDSDVGEFRAVTELGRPDAEYWNSQKDILEQARAAVDTYCRHNYGVVESFTVQRRVIKEEHDIDQDEDYDNPDQSGEFMFDFDGDEIFHVDMAKKETVWRLEEFGRFASFEAQGALANIAVDKANLEIMTKRSNYTPITN
- coimmunoprecipitation with CD74 (in words) [1]: also coimmunoprecipitated with CD74, but at much lower levels
- CDI ([2]; 100 μg x 5 (Table 11)): 43.1 ± 10.6
- Incidence ([2]; 100 μg x 5 (Table 11)): 9/9
- Mortality ([2]; 100 μg x 5 (Table 11)): 0
- Onset ([2]; 100 μg x 5 (Table 11)): 11.7 ± 1.1
- Peak ([2]; 100 μg x 5 (Table 11)): 3.3 ± 0.9
- CDI ([2]; 1 mg x 2 (Table 11)): 34.2 ± 6.2
- Incidence ([2]; 1 mg x 2 (Table 11)): 3/3
- Mortality ([2]; 1 mg x 2 (Table 11)): 0
- Onset ([2]; 1 mg x 2 (Table 11)): 9.0 ± 0.0
- Peak ([2]; 1 mg x 2 (Table 11)): 2.8 ± 0.3
- Incidence [2, 8]: 9/9
- Onset [2, 8]: 11.7 ± 1.1
- Mortality ([2]; DR*1501-Tg mice, treated at disease onset): 0
- CDI ([2]; cumulative disease index, DR*1501-Tg mice, treated at disease onset): 42.9 ± 10.7
- effect on EAE (in words) ([2]; listed as pDR2/no peptide): significant reduction of daily and cumulative EAE scores compared to treatment with vehicle
- effect on EAE (in words) ([2]; listed as pDR2 without peptide): lower than those treated with vehicle alone
- Peak ([2]; peak clinical EAE score, DR*1501-Tg mice, treated at disease onset): 3.3 ± 0.9
- Kd [3]: > 10 nM
- effect on EAE (in words) ([4]; MBP-85-99-induced EAE): ineffective at treating EAE
- CDI [4, 9]: 43.3 ± 12.0
- Incidence [4, 9]: 6/6
- Mortality [4, 9]: 0
- Onset [4, 9]: 17.5 ± 5.0
- Peak [4, 9]: 3.7 ± 0.8
- CD80 expression (in words) [5]: decreased
- Kd [6]: > 10 nM
- CDI ([7]; cumulative disease index): 36.8 ± 7.1
- Incidence ([7]; hMOG-35-55/CFA/Ptx EAE): 6/6
- Onset ([7]; hMOG-35-55/CFA/Ptx EAE): 15.0 ± 1.7
- Peak ([7]; peak clinical EAE score): 2.9 ± 0.5
- Mortality [7]: 0
